Assay results published in US20180273595A1 (REGENTS OF THE UNIVERSITY OF MICHIGAN, published 2018).
*1 amine or outer side, *2 acyl side, *3 side chain or, on linkers, in order; H or OH if unused. Primed or numbered codes have the meaning given here. Where no end group is shown, it is not given here. [ ]: non-standard residue; d: D form. Y(Me) = COc1ccc(C[C@H](N[*:1])C(=O)[*:2])cc1; Pip′ = 4-methylpiperazine; βAla = NCCC(=O)O

Tests used:
[1] = target: T1, recombinant His-tagged full-length ERG (UniProt P11308 1-479, biotinylated with NHS-PEG4 biotin for the OctetRED assays); assay: OctetRED BLI, biotinylated ERG on streptavidin sensors
T1 construct: mature; Baculovirus expression in SF9 cells, Ni-NTA purified; also called wild-type ERG; wtERG; not shown: His tag
T1 sequence (looked up): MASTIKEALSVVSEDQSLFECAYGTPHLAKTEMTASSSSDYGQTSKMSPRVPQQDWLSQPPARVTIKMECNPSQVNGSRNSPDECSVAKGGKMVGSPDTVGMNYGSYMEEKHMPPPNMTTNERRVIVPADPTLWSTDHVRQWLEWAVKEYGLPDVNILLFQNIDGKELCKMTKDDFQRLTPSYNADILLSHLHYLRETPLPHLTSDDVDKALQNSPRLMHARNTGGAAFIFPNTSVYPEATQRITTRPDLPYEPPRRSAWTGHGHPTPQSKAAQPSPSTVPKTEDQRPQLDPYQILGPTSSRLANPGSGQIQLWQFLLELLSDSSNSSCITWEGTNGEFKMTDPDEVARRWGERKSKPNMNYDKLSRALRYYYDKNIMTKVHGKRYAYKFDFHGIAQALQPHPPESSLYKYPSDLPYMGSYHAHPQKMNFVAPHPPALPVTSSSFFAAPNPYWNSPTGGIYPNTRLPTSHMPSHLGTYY

[2] = target: T1, recombinant His-tagged full-length ERG; assay: Kd table of synthetic peptides on ERG; assay not given
[3] = target: T1, recombinant His-tagged full-length ERG; assay: as above; remark: listed apart in the source
Experimental: (§1) The interaction coefficients between ERG and synthetic peptides or peptidomimetics were determined by biolayer interferometry technology using the Octet Red system (ForteBio). Purified ERG and GUS proteins were biotinylated by EZLink NHS-PEG4 Biotinylation Kit (Thermo Scientific) following the manufacturer's protocol and any unincorporated biotin was removed from the reactions with Zeba 2 ml desalt columns (Thermo). Biotinylated proteins (500 μg/ml) were then incubated with super streptavidin biosensors in binding buffer (20 mM HEPES pH 7.4, 150 mM NaCl), blocked with 10 μg/ml biocytin and washed three times in binding buffer. Peptides were serially diluted in binding buffer, mixed with the protein-coupled biosensors and peptidomimetic:protein association/dissociation was monitored for 10 min at 25° C. Nonspecific binding from the signal obtained from peptidomimetic:GUS interactions was subtracted from that of peptidomimetic:ERG interactions and baseline signal drift was controlled by monitoring immobilized ERG without peptide. Octet Red analysis software was used to analyze the data.

[4] = target: T1, recombinant His-tagged full-length ERG; assay: OctetRED; Kd table of synthetic peptides on ERG
Experimental: as §1

[5] = target: T1, recombinant His-tagged full-length ERG; assay: Kd table of synthetic peptides on ERG; assay not given; remark: listed apart in the source
[6] = target: T1, recombinant His-tagged full-length ERG; assay: as above; remark: listed apart in the source
Experimental: as §1

[7] = target: T2, Halo-tagged full-length ERG (UniProt P11308 1-479); assay: competitive pull-down: Halo-ERG with purified DNA-PKcs or GST-AR and peptide, HaloLink beads, immunoblot
T2 construct: mature; In vitro transcription/translation in wheat germ lysate; also called Halo-ERG fusion protein; not shown: HaloTag (about 35 kDa), N-terminal
T2 sequence (looked up): T1 sequence (looked up)

[8] = target: T1, recombinant His-tagged full-length ERG; assay: OctetRED biolayer interferometry, biotinylated ERG on streptavidin sensors, peptide in solution
Experimental: as §1

[9] = target: T1, recombinant His-tagged full-length ERG; assay: OctetRED biolayer interferometry, steady-state analysis
Experimental: as §1

[10] = target: T3, TMPRSS2:ERG gene fusion product, endogenous in VCaP cells (UniProt P11308 33-479, limits assumed); assay: pull-down of VCaP lysate with biotinylated peptide, ERG immunoblot
T3 construct: In cell lysates, in cells or in xenograft tumors; also called endogenous ERG; VCaP ERG
T3 sequence (looked up): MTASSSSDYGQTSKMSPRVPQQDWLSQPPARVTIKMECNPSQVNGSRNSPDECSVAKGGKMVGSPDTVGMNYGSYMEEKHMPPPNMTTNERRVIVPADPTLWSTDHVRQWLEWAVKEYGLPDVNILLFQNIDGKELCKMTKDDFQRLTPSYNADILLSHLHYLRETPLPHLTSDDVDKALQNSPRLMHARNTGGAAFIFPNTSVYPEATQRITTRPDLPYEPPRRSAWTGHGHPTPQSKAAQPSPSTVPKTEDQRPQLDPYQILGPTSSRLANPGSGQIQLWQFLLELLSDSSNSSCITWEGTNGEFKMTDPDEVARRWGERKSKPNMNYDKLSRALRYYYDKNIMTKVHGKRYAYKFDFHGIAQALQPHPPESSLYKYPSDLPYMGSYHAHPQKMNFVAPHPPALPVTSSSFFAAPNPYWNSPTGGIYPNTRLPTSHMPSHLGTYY
Experimental: Approximately 1 mg of soluble VCaP cell lysate prepared in RIPA buffer (Invitrogen) was incubated with varying amounts of biotinylated peptides for 2 hours at 4° C. HaloLink agarose beads (20 μl) were added to the peptide-lysate mixture and incubated for an additional 4 hours. Beads were then pelleted by centrifugation, washed three times in PBS-T and loaded into an SDSPAGE gel followed by Western blot analysis. Total VCaP cell lysate was loaded for positive control.

[11] = target: T1, recombinant His-tagged full-length ERG; assay: OctetRED BLI
[12] = target: T1, recombinant His-tagged full-length ERG; assay: OctetRED BLI, alanine substitution peptides of TAT-EIP1

## LPPYLFT [EIP1 synthetic peptide LPPYLFT]
[1]
  Kd: 0.6 µM
[2]
  Kd: 0.972 µM
[3]
  Kd: 2.8 µM

## Ac-LPPDLFT-NH2 (also called Ac-LPPDLFT-NH2) [7LT-4D]
[2]
  Kd: > 100 µM

## Ac-LPPFLFT-NH2 (also called Ac-LPPFLFT-NH2) [7LT-4F]
[2]
  Kd: > 100 µM

## Ac-LPPHLFT-NH2 (also called Ac-LPPHLFT-NH2) [7LT-4H]
[2]
  Kd: > 100 µM

## Ac-LPPWLFT-NH2 (also called Ac-LPPWLFT-NH2) [7LT-4W]
[2]
  Kd: > 100 µM

## H-PPYLFT-NH2 (also called H2N-PPYLFT-NH2) [6PT-N]
[4]
  Kd: 11.5 µM

## Ac-PPYLFT-NH2 (also called Ac-PPYLFT-NH2) [6PT-A]
[4]
  Kd: 3.64 µM

## H-LPPYLF-NH2 (also called H2N-LPPYLF-NH2) [6LF-N]
[4]
  Kd: 4.88 µM

## Ac-LPPYLF-NH2 (also called Ac-LPPYLF-NH2) [6LF-A]
[4]
  Kd: > 100 µM

## H-PYLFT-NH2 [5PT-N (NH2-PYLFT-NH2)]
[4]
  Kd: 1.31 µM

## Ac-PYLFT-NH2 (also called Ac-PYLFT-NH2) [5PT-A]
[4]
  Kd: 5.15 µM

## H-LPPYL-NH2 (also called H2N-LPPYL-NH2) [5LL-N]
[4]
  Kd: 9.6 µM

## Ac-LPPYL-NH2 (also called Ac-LPPYL-NH2) [5LL-A]
[4]
  Kd: 12.4 µM

## H-PPYLF-NH2 (also called H2N-PPYLF-NH2) [5PF-N]
[4]
  Kd: 10.2 µM

## Ac-PPYLF-NH2 (also called Ac-PPYLF-NH2) [5PF-A]
[4]
  Kd: 9.44 µM

## H-PPYL-NH2 (also called H2N-PPYL-NH2) [4PL-N]
[4]
  Kd: > 100 µM
[3]
  Kd: 94.2 µM

B1: 7-mer LPPYLFT capped at the N-terminus only (Ac-LPPYLFT) (peptide)
peptide: Ac-LPPYLFT-OH
notes: Variant inferred from the sentence on capping
[3]
  Kd: 2.8 µM

## Ac-PPYL-NH2 (also called capped 4-mer peptide PPYL) [4PL-A (Ac-PPYL-NH2)]
[3]
  Kd: 1.4 µM

## [Pip′]PPFL-NH2 (also called Pip-PPFL-NH2) [4PL-3F]
[5]
  Kd: 3.9 µM

## [Pip′]PPYA-NH2 (also called Pip-PPYA-NH2) [4PL-4A]
[5]
  Kd: 7.9 µM

## [Pip′]PPYD-NH2 (also called Pip-PPYD-NH2) [4PL-4D]
[5]
  Kd: 14.8 µM

## [Pip′]PPYF-NH2 (also called Pip-PPYF-NH2) [4PL-4F]
[5]
  binding result: no binding

## PPYE (not fully specified) [PPYE peptide (mutation of PPYL to PPYE)]
[6]
  binding result: no binding

B2: PPYL with 4-methylpiperazine (Pip) added (peptide)
peptide: [Pip′]PPYL
modifications: not fully specified
notes: also called more soluble version of 4PL-A
[6]
  Kd: 3.3 µM

## [Pip′][βAla][βAla]PPYL-NH2 (not fully specified, also called Pip-βAβA-PPYL-NH2) [4PL-Pip2]
[6]
  Kd: 3 µM

B3: LPPYLFT with 4-methylpiperazine (Pip) added (peptide)
peptide: LPPYLFT
modifications: not fully specified (N-terminus)
notes: also called more soluble version of EIP1
[6]
  Kd: 1.7 µM

## [Pip′]PP[Y(Me)]L-NH2 (also called Pip-PPY(Me)L-NH2) [4PL-3Y(Me)]
[5]
  Kd: 15.5 µM

## LPPALFT (Alanine substitution control) [muEIP1 synthetic peptide LPPALFT]
[7]
  binding result: no binding (tested: 50 µM)
[8]
  binding result: no binding (tested: 20 µM)

## LSAGSAP (Alanine substitution control) [muEIP2 synthetic peptide LSAGSAP]
[8]
  binding result: no binding (tested: 20 µM)

## LPPTFLY [scrambled peptide LPPTFLY]
[9]
  binding result: no binding (tested: 20 µM)

B4: biotinylated muEIP2 peptide (peptide)
peptide: LSAGSAP
modifications: also: biotin, position not given here
notes: also called biotin-muEIP2; mutant EIP2 (muEIP2)
[10]
  binding result: no binding (tested: 20 µM)

## LRFGTLP [synthetic peptide LRFGTLP]
[1]
  Kd: 7.9 µM

## LSFGSLP [EIP2 synthetic peptide LSFGSLP]
[1]
  Kd: 1.8 µM

## FSFGSLP [synthetic peptide FSFGSLP]
[1]
  Kd: 2.1 µM

## FTFGSLP [synthetic peptide FTFGSLP]
[1]
  Kd: 3.9 µM

## LAFGSLP [synthetic peptide LAFGSLP]
[1]
  Kd: 6.4 µM

## LSFGSFP [synthetic peptide LSFGSFP]
[1]
  Kd: 12.5 µM

## LSFGTFP [synthetic peptide LSFGTFP]
[1]
  Kd: 9.2 µM

## LTFGSLP [synthetic peptide LTFGSLP]
[1]
  Kd: 2.9 µM

## LPPYLFTGGRKKRRQRRRG (not fully specified, also called FITC-labeled TAT-EIP1) [TAT-EIP1 cell-permeable peptide]
[11]
  Kd: 0.68 µM

## LAPYLFTGGRKKRRQRRRG (also called P^2→A) [TAT-EIP1 with P2 to A substitution]
[12]
  fold increase in Kd against parental TAT-EIP1: > 100 fold

## LPPALFTGGRKKRRQRRRG (also called Y→A) [TAT-EIP1 with Y to A substitution]
[12]
  fold increase in Kd against parental TAT-EIP1: > 100 fold

## LSFGSLPGGRKKRRQRRRG [TAT-EIP2 cell-permeable peptide]
[11]
  Kd: 1.11 µM

## FSASSPA [synthetic peptide FSASSPA]
[1]
  Kd: 21.1 µM

## MTFGTLP [synthetic peptide MTFGTLP]
[1]
  Kd: 4.6 µM

## YTFGTLP [synthetic peptide YTFGTLP]
[1]
  Kd: 3.2 µM
